Experimental findings from publication doi:10.1101/2021.04.12.439405 (bioRxiv, 2021) are described below.

Positions count from the first letter of the chain named.

Test [1] has as its target T1, MukB-His (wild type MukB) (E. coli, UniProt P22523 1-1486).
T1 sequence (looked up): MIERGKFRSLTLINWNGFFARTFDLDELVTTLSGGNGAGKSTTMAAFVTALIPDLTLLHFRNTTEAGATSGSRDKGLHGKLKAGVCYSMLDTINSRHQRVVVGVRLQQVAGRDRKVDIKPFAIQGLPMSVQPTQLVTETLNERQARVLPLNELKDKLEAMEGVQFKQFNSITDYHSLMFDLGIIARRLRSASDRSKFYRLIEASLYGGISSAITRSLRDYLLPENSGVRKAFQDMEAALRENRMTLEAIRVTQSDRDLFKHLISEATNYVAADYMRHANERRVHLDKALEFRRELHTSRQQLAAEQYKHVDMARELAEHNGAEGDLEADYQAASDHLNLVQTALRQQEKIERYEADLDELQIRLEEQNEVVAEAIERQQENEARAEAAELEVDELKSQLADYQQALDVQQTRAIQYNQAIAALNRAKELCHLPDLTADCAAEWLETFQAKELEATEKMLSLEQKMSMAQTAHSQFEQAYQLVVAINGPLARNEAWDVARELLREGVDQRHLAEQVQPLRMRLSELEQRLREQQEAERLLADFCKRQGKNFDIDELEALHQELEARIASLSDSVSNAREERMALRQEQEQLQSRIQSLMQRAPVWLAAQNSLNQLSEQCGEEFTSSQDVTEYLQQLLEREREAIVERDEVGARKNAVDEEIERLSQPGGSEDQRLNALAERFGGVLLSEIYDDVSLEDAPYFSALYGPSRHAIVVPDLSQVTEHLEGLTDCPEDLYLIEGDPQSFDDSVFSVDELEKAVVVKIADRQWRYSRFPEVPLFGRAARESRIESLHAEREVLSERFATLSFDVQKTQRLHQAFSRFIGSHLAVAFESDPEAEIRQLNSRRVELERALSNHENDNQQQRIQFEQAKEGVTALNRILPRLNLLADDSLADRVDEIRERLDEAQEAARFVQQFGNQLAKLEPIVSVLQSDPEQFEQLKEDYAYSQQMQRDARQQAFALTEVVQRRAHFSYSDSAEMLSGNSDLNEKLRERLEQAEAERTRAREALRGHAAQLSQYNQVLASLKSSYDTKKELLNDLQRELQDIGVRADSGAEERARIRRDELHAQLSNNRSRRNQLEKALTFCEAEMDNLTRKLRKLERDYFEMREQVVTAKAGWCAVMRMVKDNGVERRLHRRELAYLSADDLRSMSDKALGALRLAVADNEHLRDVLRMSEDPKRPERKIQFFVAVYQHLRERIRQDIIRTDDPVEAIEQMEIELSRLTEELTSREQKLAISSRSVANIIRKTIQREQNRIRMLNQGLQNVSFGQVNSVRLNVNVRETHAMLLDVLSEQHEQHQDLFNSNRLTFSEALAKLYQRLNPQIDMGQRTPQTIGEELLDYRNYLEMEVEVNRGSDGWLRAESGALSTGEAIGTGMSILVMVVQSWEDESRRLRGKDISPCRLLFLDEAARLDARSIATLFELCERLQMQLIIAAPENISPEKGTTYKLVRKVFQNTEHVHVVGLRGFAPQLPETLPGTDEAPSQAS
The test is described as follows: native MS.

The target in test [2] is T2, MukB^KRK (K1114E, R1122E and K1125E) (E. coli, UniProt P22523 1-1486, K1114E | R1122E | K1125E).
T2 sequence (looked up): T1 sequence (looked up) with K1114E, R1122E, K1125E
The test is described as follows: native gel or EMSA. (In general: A gel shift assay detects complexes by their altered migration in electrophoresis.)

B1: His-MukF (natural protein, E. coli, UniProt P60293 1-440, looked up)
chain: MSEFSQTVPELVAWARKNDFSISLPVDRLSFLLAVATLNGERLDGEMSEGELVDAFRHVSDAFEQTSETIGVRANNAINDMVRQRLLNRFTSEQAEGNAIYRLTPLGIGITDYYIRQREFSTLRLSMQLSIVAGELKRAADAAEEGGDEFHWHRNVYAPLKYSVAEIFDSIDLTQRLMDEQQQQVKDDIAQLLNKDWRAAISSCELLLSETSGTLRELQDTLEAAGDKLQANLLRIQDATMTHDDLHFVDRLVFDLQSKLDRIISWGQQSIDLWIGYDRHVHKFIRTAIDMDKNRVFAQRLRQSVQTYFDEPWALTYANADRLLDMRDEEMALRDEEVTGELPEDLEYEEFNEIREQLAAIIEEQLAVYKTRQVPLDLGLVVREYLSQYPRARHFDVARIVIDQAVRLGVAQADFTGLPAKWQPINDYGAKVQAHVIDKY
Consider B1, for which the binding result in test [1] and in test [2] was “binds” in each case.
